The target of this experiment is SARS-CoV-2 스파이크 D19 (VSV 슈도바이러스) (SARS-CoV-2) (UniProt P0DTC2). Description: cell-based or functional assay.

S2E12-LS (antibody) displayed an EC50 (neutralisation, interpolated) of 1.4 ng/mL; an EC90 (neutralisation, interpolated) of 11.9 ng/mL; an IC50 (neutralisation) of 1.4 ng/mL.

The record behind these values is patent KR20230010676A.
